The values below come from article PMC12043515, “Stepwise neofunctionalization of the NF-κB family member Rel during vertebrate evolution”.

Substitutions are numbered along the chain they refer to.

Series [1] deals with T1, Rel RHR homodimer (UniProt P15307 8-297). The series can be described thus: EMSA; EMSA: 10 mM Tris-HCl pH 7.5, 150 mM NaCl, 1 mM DTT, 1 mM EDTA, 5% glycerol, 80 ng/ul dI-dC, 200 ng/ul BSA, 4 C; off-rate with 100-fold unlabeled consensus. SPR: 10 mM HEPES pH 7.5, 150 mM NaCl, 3 mM EDTA, 0.005% Tween 20, 10 C. The settings on record: protein: recombinant; chain copies: 2; label: 32P.

The target in series [2] is T1, Rel RHR homodimer. The series can be described thus: SPR; slower off-rate than on …; EMSA: 10 mM Tris-HCl pH 7.5, 150 mM NaCl, 1 mM DTT, 1 mM EDTA, 5% glycerol, 80 ng/ul dI-dC, 200 ng/ul BSA, 4 C; off-rate with 100-fold unlabeled consensus. SPR: 10 mM HEPES pH 7.5, 150 mM NaCl, 3 mM EDTA, 0.005% Tween 20, 10 C. Particulars: protein: recombinant; chain copies: 2; label: biotin.

In series [3] the target is T1, Rel RHR homodimer. The series can be described thus: SPR; less stable than κB2 and κB1; EMSA: 10 mM Tris-HCl pH 7.5, 150 mM NaCl, 1 mM DTT, 1 mM EDTA, 5% glycerol, 80 ng/ul dI-dC, 200 ng/ul BSA, 4 C; off-rate with 100-fold unlabeled consensus. SPR: 10 mM HEPES pH 7.5, 150 mM NaCl, 3 mM EDTA, 0.005% Tween 20, 10 C. The settings on record: protein: recombinant; chain copies: 2; label: biotin. For orientation: In SPR one partner is held on a chip, and binding of the other changes the refractive index at the surface.

Series [4] deals with T1, Rel RHR homodimer. The series can be described thus: SPR; most stable of Il12b motifs; EMSA: 10 mM Tris-HCl pH 7.5, 150 mM NaCl, 1 mM DTT, 1 mM EDTA, 5% glycerol, 80 ng/ul dI-dC, 200 ng/ul BSA, 4 C; off-rate with 100-fold unlabeled consensus. SPR: 10 mM HEPES pH 7.5, 150 mM NaCl, 3 mM EDTA, 0.005% Tween 20, 10 C. Particulars: protein: recombinant; chain copies: 2; label: biotin.

Series [5] deals with T1, Rel RHR homodimer. The series can be described thus: SPR; less stable than κB2; EMSA: 10 mM Tris-HCl pH 7.5, 150 mM NaCl, 1 mM DTT, 1 mM EDTA, 5% glycerol, 80 ng/ul dI-dC, 200 ng/ul BSA, 4 C; off-rate with 100-fold unlabeled consensus. SPR: 10 mM HEPES pH 7.5, 150 mM NaCl, 3 mM EDTA, 0.005% Tween 20, 10 C. The settings on record: protein: recombinant; chain copies: 2; label: biotin.

Series [6] deals with RelA RHR homodimer (UniProt Q04207 19-306). The series can be described thus: EMSA; only one dimer bound; EMSA: 10 mM Tris-HCl pH 7.5, 150 mM NaCl, 1 mM DTT, 1 mM EDTA, 5% glycerol, 80 ng/ul dI-dC, 200 ng/ul BSA, 4 C; off-rate with 100-fold unlabeled consensus. SPR: 10 mM HEPES pH 7.5, 150 mM NaCl, 3 mM EDTA, 0.005% Tween 20, 10 C. The settings on record: protein: recombinant; chain copies: 2; label: 32P. For orientation: Mobility shift assays separate free from complexed probe on a gel.

Series [7] has as its target T1, Rel RHR homodimer. The series can be described thus: EMSA; three dimers bound simultaneously; EMSA: 10 mM Tris-HCl pH 7.5, 150 mM NaCl, 1 mM DTT, 1 mM EDTA, 5% glycerol, 80 ng/ul dI-dC, 200 ng/ul BSA, 4 C; off-rate with 100-fold unlabeled consensus. SPR: 10 mM HEPES pH 7.5, 150 mM NaCl, 3 mM EDTA, 0.005% Tween 20, 10 C. Particulars: protein: recombinant; chain copies: 2; label: 32P.

T1 sequence (P15307 8-297): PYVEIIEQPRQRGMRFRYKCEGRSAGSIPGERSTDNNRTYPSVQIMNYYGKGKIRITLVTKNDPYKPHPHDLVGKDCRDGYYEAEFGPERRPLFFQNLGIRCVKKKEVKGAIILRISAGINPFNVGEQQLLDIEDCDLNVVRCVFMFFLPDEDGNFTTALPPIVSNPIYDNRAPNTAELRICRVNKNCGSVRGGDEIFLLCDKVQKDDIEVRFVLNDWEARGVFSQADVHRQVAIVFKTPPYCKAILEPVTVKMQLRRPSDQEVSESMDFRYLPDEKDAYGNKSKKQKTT
RelA RHR homodimer, sequence (Q04207 19-306): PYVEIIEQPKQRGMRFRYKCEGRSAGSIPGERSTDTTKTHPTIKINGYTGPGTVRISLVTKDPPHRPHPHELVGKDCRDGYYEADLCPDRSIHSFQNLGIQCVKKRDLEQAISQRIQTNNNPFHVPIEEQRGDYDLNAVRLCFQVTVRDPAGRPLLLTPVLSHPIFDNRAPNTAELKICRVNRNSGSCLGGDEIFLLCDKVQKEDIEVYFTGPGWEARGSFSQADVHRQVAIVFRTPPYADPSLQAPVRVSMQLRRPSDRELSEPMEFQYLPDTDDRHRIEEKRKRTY

B1: κB1 EMSA probe (dsDNA)
DNA 1: CCTAACATCAGGAACTTCTTTGATGTTAGG
DNA 2: CCTAACATCAAAGAAGTTCCTGATGTTAGG
As to B1, the binding result in series [1] is on record as “binds”.

B2: SPR GGGGGTTTTT (dsDNA)
DNA 1: CCTAACATCAGGGGGTTTTTTGATGTTAGG
DNA 2: CCTAACATCAAAAAACCCCCTGATGTTAGG
On to B2, for which the binding result in series [2] is “binds”.

B3: κB3 (SPR) (dsDNA)
DNA 1: CCTAACATCAAGAATGTTTTTGATGTTAGG
DNA 2: CCTAACATCAAAAACATTCTTGATGTTAGG
Take B3: the binding result in series [3] is reported as “binds”.

B4: κB3 EMSA probe (dsDNA)
DNA 1: B3 DNA 1
DNA 2: B3 DNA 2
As for B4, the binding result in series [1] is recorded as “binds”.

B5: κB2 (SPR) (dsDNA)
DNA 1: B2 DNA 2 with A15T, C16T
DNA 2: B2 DNA 1 with G15A, T16A
Turning to B5, the binding result in series [4] is “binds”.

B6: κB2 EMSA probe (dsDNA)
DNA 1: CCTAACATCAAAAATTCCCCGATGTTAGG
DNA 2: CCTAACATCGGGGAATTTTTGATGTTAGG
Consider B6, for which, in series [1], the binding result is “binds”.

B7: κB1 (SPR) (dsDNA)
DNA 1: B1 DNA 1
DNA 2: B1 DNA 2
Turning to B7, the binding result in series [5] is reported as “binds”.

B8: κB1+2+3 (dsDNA)
DNA 1: AGGAACTTCTTAAAATTCCCCCAGAATGTTTTGACA
DNA 2: TGTCAAAACATTCTGGGGGAATTTTAAGAAGTTCCT
B8: the binding result in series [6] and in series [7] was “binds” each time.
